Where “and” joins values, the source holds several entries; their conditions need not be identical. Equal entries are not always repeated.
Key:
[1] = molecular target: T1, LdG6PD wt dimer (LdG6PD^Dimer) (Leishmania donovani, UniProt A2CIL3); assay: dead-end inhibition, Lineweaver-Burk; format: biochemical; conditions: 0-20 µM GlcN 6-P; competitive against G6P, not against NADP+; pH 7.5, 25 °C; oligomer fraction not told
T1 construct: gene g6pdh
T1 sequence (A2CIL3 1-562): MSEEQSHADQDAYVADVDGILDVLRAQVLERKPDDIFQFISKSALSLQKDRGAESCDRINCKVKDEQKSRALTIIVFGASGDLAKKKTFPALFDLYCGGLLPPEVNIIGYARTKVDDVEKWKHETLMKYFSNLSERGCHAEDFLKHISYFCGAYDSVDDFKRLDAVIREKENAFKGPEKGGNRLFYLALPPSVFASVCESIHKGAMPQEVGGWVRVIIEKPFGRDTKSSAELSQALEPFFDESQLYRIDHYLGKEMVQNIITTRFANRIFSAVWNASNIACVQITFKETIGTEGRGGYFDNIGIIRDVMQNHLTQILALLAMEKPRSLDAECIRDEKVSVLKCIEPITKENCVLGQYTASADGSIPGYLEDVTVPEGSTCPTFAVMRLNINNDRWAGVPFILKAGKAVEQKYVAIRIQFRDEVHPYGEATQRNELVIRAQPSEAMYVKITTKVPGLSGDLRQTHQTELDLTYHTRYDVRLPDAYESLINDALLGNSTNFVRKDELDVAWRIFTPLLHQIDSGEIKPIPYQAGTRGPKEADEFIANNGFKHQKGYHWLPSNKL

[2] = molecular target: T1, LdG6PD wt dimer (LdG6PD^Dimer); assay: product inhibition, Lineweaver-Burk; format: biochemical; conditions: 0-80 µM NADPH; competitive against NADP+ (G6P 800 µM) and against G6P (NADP+ 200 µM); pH 7.5, 25 °C; oligomer fraction not told
[3] = system: NC(=O)c1ccc[n+]([C@@H]2O[C@H](COP(=O)(O)OP(=O)(O)OC[C@H]3O[C@@H](n4cnc5c(N)ncnc54)[C@H](OP(=O)(O)O)[C@@H]3O)[C@@H](O)[C@H]2O)c1; assay: purified protein; format: biochemical, Leishmania donovani; conditions: 800 µM G6P, 50 mM Tris pH 7.5, 3.3 mM MgCl2, 25 °C, crystal ligand given as NADP(H), redox state open
[4] = molecular target: Leishmania donovani glucose 6-phosphate dehydrogenase C138S mutant (Leishmania donovani); assay: SEC
[5] = molecular target: Leishmania donovani glucose 6-phosphate dehydrogenase truncation mutant lacking the first 59 N-terminal amino acids (Leishmania donovani); assay: SEC
[6] = molecular target: Leishmania donovani glucose 6-phosphate dehydrogenase wild type (Leishmania donovani); assay: SEC; HiLoad 16/60 Superdex 200, buffer A (500 mM NaCl, 50 mM Tris, pH 7.8), native conditions; for LdG6PD wt also 12-300 uM enzyme, 5 mM DTT, 2 mM H2O2, substrates (100 uM G6P, NADP+), 0.1-1 M NaCl, pH 4.8-7.8, all without change of the profile; self-association: monomers to dimer and dimers to tetramer
[7] = molecular target: Leishmania major glucose 6-phosphate dehydrogenase wild type (Leishmania major); assay: as above
purified protein [8] = substrate: NC(=O)c1ccc[n+]([C@@H]2O[C@H](COP(=O)(O)OP(=O)(O)OC[C@H]3O[C@@H](n4cnc5c(N)ncnc54)[C@H](OP(=O)(O)O)[C@@H]3O)[C@@H](O)[C@H]2O)c1; assay: purified protein; conditions: 800 µM G6P
purified protein [9] = substrate: NC(=O)c1ccc[n+]([C@@H]2O[C@H](COP(=O)(O)OP(=O)(O)OC[C@H]3O[C@@H](n4cnc5c(N)ncnc54)[C@H](OP(=O)(O)O)[C@@H]3O)[C@@H](O)[C@H]2O)c1; assay: purified protein; format: biochemical, Leishmania donovani; conditions: 800 µM G6P, 50 mM Tris pH 7.5, 3.3 mM MgCl2, 25 °C, tetramer fraction

## N[C@H]1C(O)O[C@H](COP(=O)(O)O)[C@@H](O)[C@@H]1O (stereo partly shown) [GlcN 6-P, glucosamine 6-phosphate]
[1]
  dead-end inhibition, Lineweaver-Burk: GlcN 6-P shows a competitive inhibition pattern towards G6P

## NC(=O)C1=CN([C@@H]2O[C@H](COP(=O)(O)OP(=O)(O)OC[C@H]3O[C@@H](n4cnc5c(N)ncnc54)[C@H](OP(=O)(O)O)[C@@H]3O)[C@@H](O)[C@H]2O)C=CC1 [NADPH]
[2]
  product inhibition, Lineweaver-Burk: NADPH was found to be a competitive inhibitor with respect to NADP^+ in LdG6PD

## LdG6PD^60–562 (Leishmania donovani)
[3]
  Km: 14.3 ± 2.2 µM
  Vmax: 233 µmol/min/mg
  kcat: 234 ± 18.8 s⁻¹
  kcat/Km: 1.7e+07 ± 2.5e+06 M⁻¹ s⁻¹

## Leishmania donovani glucose 6-phosphate dehydrogenase C138S mutant (enzyme)
[4]
  stoichiometry N: 2 and 4

## Leishmania donovani glucose 6-phosphate dehydrogenase truncation mutant lacking the first 59 N-terminal amino acids (domain or fragment)
[5]
  stoichiometry N: 2

## Leishmania donovani glucose 6-phosphate dehydrogenase wild type (enzyme)
[6]
  stoichiometry N: 4 and 2

## Leishmania major glucose 6-phosphate dehydrogenase wild type (enzyme)
[7]
  stoichiometry N: 2 and 4

B1: LdG6PD wt dimer (LdG6PD^Dimer) (Leishmania donovani) (protein)
chain: T1 sequence (A2CIL3 1-562)
Purified protein [8]; 50 mM Tris pH 7.5, 3.3 mM MgCl2, 0.005% Tween, 1 mg/mL BSA, 25 °C, dimer fraction, crystal ligand given as NADP(H), redox state open
  Km: 15.9 ± 1.1 µM

B2: LdG6PD wt tetramer (LdG6PD^Tetramer) (Leishmania donovani) (protein)
chain: T1 sequence (A2CIL3 1-562)
Purified protein [9]
  Km: 14.2 ± 0.9 µM
  Vmax: 185 µmol/min/mg
  kcat: 204 ± 13.6 s⁻¹
  kcat/Km: 1.49e+07 ± 3e+06 M⁻¹ s⁻¹

B3: LmG6PD wt (Leishmania major) (protein)
chain: MSEEQSHADQDAYVADVDGILDVLRAEVLERKPDDVFQFISQSALSLQKDRGAESCDRINCKVTDEQKSRALTIIVFGASGDLAKKKTFPALFDLYCGGLLPPEVNVIGYARTKVDDAERWKRETLMTYFSNVPERACHAEDFLKHISYFCGSYDKVDDFKRLDAVIREKENAFKGPEKGGNRLFYLALPPSVFASVCESIHKGAMPQEVGGWARVIIEKPFGRDTKSSAELSRALEPFFDESQLYRIDHYLGKEMVQNIITTRFANRIFSAVWNSNNIACVQITFKETIGTEGRGGYFDGIGIIRDVMQNHLTQILALLAMEKPRSLDAECIRDEKVSVLKCIEPITKENCVLGQYTASADGSIPGYQEDVTVPEGSTCPTFAVMRLNINNDRWAGVPFILKAGKAVEQKYVAIRIQFKDEVHPYGEATQRNELVIRAQPSEAMYVKITTKVPGLSGDLRQTHQTELDLTYHTRYDVRLPDAYESLINDALLGNSTNFVRKDELDVAWRIFTPLLHQIDCGEIKPIPYQAGTRGPKEADEFITNNGFKHQKGYQWLPSNKL
Purified protein [8]; 50 mM Tris pH 7.5, 3.3 mM MgCl2, 25 °C
  Km: 11.4 ± 1.5 µM
